The values below come from US20180155451A1 (published 2018).

B1: GpH7-A5/GpH7-B3 variant K326_03V/GpL16-k0 (antibody, human IgG1, kappa)
heavy 1: not shown
heavy 2: not shown
light: DIVMTQSPLSLPVTPGEPASISCQASESLVHSNRNTYLHWYLQKPGQSPQLLIYKVSNRFSGVPDRFSGSGSGTDFTLKISRVEAEDVGVYYCSQNTHVPPTFGQGTKVEIERTVAAPSVFIFPPSDEQLKSGTASVVCLLNNFYPREAKVQWKVDNALQSGNSQESVTEQDSKDSTYSLSSTLTLSKADYEKHKVYACEVTHQGLSSPVTKSFNRGEC
notes: heterodimerized antibody, mutation in one H chain only; also called K326_03V He Ab
B2: GpH7-A5/GpH7-B3 variant K326_19Q/GpL16-k0 (antibody, human IgG1, kappa)
heavy 1: not shown
heavy 2: not shown
light: DIVMTQSPLSLPVTPGEPASISCQASESLVHSNRNTYLHWYLQKPGQSPQLLIYKVSNRFSGVPDRFSGSGSGTDFTLKISRVEAEDVGVYYCSQNTHVPPTFGQGTKVEIERTVAAPSVFIFPPSDEQLKSGTASVVCLLNNFYPREAKVQWKVDNALQSGNSQESVTEQDSKDSTYSLSSTLTLSKADYEKHKVYACEVTHQGLSSPVTKSFNRGEC
notes: heterodimerized antibody, mutation in one H chain only; also called K326_19Q He Ab
B3: GpH7-A5/GpH7-B3 variant K334_05P/GpL16-k0 (antibody, human IgG1, kappa)
heavy 1: not shown
heavy 2: not shown
light: DIVMTQSPLSLPVTPGEPASISCQASESLVHSNRNTYLHWYLQKPGQSPQLLIYKVSNRFSGVPDRFSGSGSGTDFTLKISRVEAEDVGVYYCSQNTHVPPTFGQGTKVEIERTVAAPSVFIFPPSDEQLKSGTASVVCLLNNFYPREAKVQWKVDNALQSGNSQESVTEQDSKDSTYSLSSTLTLSKADYEKHKVYACEVTHQGLSSPVTKSFNRGEC
notes: heterodimerized antibody, mutation in one H chain only; also called K334_05P He Ab
B4: GpH7-A5/GpH7-B3 variant K326_08L/GpL16-k0 (antibody, human IgG1, kappa)
heavy 1: not shown
heavy 2: not shown
light: DIVMTQSPLSLPVTPGEPASISCQASESLVHSNRNTYLHWYLQKPGQSPQLLIYKVSNRFSGVPDRFSGSGSGTDFTLKISRVEAEDVGVYYCSQNTHVPPTFGQGTKVEIERTVAAPSVFIFPPSDEQLKSGTASVVCLLNNFYPREAKVQWKVDNALQSGNSQESVTEQDSKDSTYSLSSTLTLSKADYEKHKVYACEVTHQGLSSPVTKSFNRGEC
notes: heterodimerized antibody, mutation in one H chain only; also called K326_08L He Ab
B5: GpH7-A5/GpH7-B3 variant K334_13S/GpL16-k0 (antibody, human IgG1, kappa)
heavy 1: not shown
heavy 2: not shown
light: DIVMTQSPLSLPVTPGEPASISCQASESLVHSNRNTYLHWYLQKPGQSPQLLIYKVSNRFSGVPDRFSGSGSGTDFTLKISRVEAEDVGVYYCSQNTHVPPTFGQGTKVEIERTVAAPSVFIFPPSDEQLKSGTASVVCLLNNFYPREAKVQWKVDNALQSGNSQESVTEQDSKDSTYSLSSTLTLSKADYEKHKVYACEVTHQGLSSPVTKSFNRGEC
notes: heterodimerized antibody, mutation in one H chain only; also called K334_13S He Ab
B6: GpH7-A5/GpH7-B3 variant K326_06M/GpL16-k0 (antibody, human IgG1, kappa)
heavy 1: not shown
heavy 2: not shown
light: DIVMTQSPLSLPVTPGEPASISCQASESLVHSNRNTYLHWYLQKPGQSPQLLIYKVSNRFSGVPDRFSGSGSGTDFTLKISRVEAEDVGVYYCSQNTHVPPTFGQGTKVEIERTVAAPSVFIFPPSDEQLKSGTASVVCLLNNFYPREAKVQWKVDNALQSGNSQESVTEQDSKDSTYSLSSTLTLSKADYEKHKVYACEVTHQGLSSPVTKSFNRGEC
notes: heterodimerized antibody, mutation in one H chain only; also called K326_06M He Ab
B7: GpH7-A5/GpH7-B3 variant K334_15Y/GpL16-k0 (antibody, human IgG1, kappa)
heavy 1: not shown
heavy 2: not shown
light: DIVMTQSPLSLPVTPGEPASISCQASESLVHSNRNTYLHWYLQKPGQSPQLLIYKVSNRFSGVPDRFSGSGSGTDFTLKISRVEAEDVGVYYCSQNTHVPPTFGQGTKVEIERTVAAPSVFIFPPSDEQLKSGTASVVCLLNNFYPREAKVQWKVDNALQSGNSQESVTEQDSKDSTYSLSSTLTLSKADYEKHKVYACEVTHQGLSSPVTKSFNRGEC
notes: heterodimerized antibody, mutation in one H chain only; also called K334_15Y He Ab
B8: GpH7-A5/GpH7-B3 variant K334_19Q/GpL16-k0 (antibody, human IgG1, kappa)
heavy 1: not shown
heavy 2: not shown
light: DIVMTQSPLSLPVTPGEPASISCQASESLVHSNRNTYLHWYLQKPGQSPQLLIYKVSNRFSGVPDRFSGSGSGTDFTLKISRVEAEDVGVYYCSQNTHVPPTFGQGTKVEIERTVAAPSVFIFPPSDEQLKSGTASVVCLLNNFYPREAKVQWKVDNALQSGNSQESVTEQDSKDSTYSLSSTLTLSKADYEKHKVYACEVTHQGLSSPVTKSFNRGEC
notes: heterodimerized antibody, mutation in one H chain only; also called K334_19Q He Ab
B9: GpH7-A5/GpH7-B3 variant K326_10E/GpL16-k0 (antibody, human IgG1, kappa)
heavy 1: not shown
heavy 2: not shown
light: DIVMTQSPLSLPVTPGEPASISCQASESLVHSNRNTYLHWYLQKPGQSPQLLIYKVSNRFSGVPDRFSGSGSGTDFTLKISRVEAEDVGVYYCSQNTHVPPTFGQGTKVEIERTVAAPSVFIFPPSDEQLKSGTASVVCLLNNFYPREAKVQWKVDNALQSGNSQESVTEQDSKDSTYSLSSTLTLSKADYEKHKVYACEVTHQGLSSPVTKSFNRGEC
notes: heterodimerized antibody, mutation in one H chain only; also called K326_10E He Ab
B10: GpH7-A5/GpH7-B3 variant K326_09D/GpL16-k0 (antibody, human IgG1, kappa)
heavy 1: not shown
heavy 2: not shown
light: DIVMTQSPLSLPVTPGEPASISCQASESLVHSNRNTYLHWYLQKPGQSPQLLIYKVSNRFSGVPDRFSGSGSGTDFTLKISRVEAEDVGVYYCSQNTHVPPTFGQGTKVEIERTVAAPSVFIFPPSDEQLKSGTASVVCLLNNFYPREAKVQWKVDNALQSGNSQESVTEQDSKDSTYSLSSTLTLSKADYEKHKVYACEVTHQGLSSPVTKSFNRGEC
notes: heterodimerized antibody, mutation in one H chain only; also called K326_09D He Ab
B11: GpH7-A5/GpH7-B3 variant K326_20W/GpL16-k0 (antibody, human IgG1, kappa)
heavy 1: not shown
heavy 2: not shown
light: DIVMTQSPLSLPVTPGEPASISCQASESLVHSNRNTYLHWYLQKPGQSPQLLIYKVSNRFSGVPDRFSGSGSGTDFTLKISRVEAEDVGVYYCSQNTHVPPTFGQGTKVEIERTVAAPSVFIFPPSDEQLKSGTASVVCLLNNFYPREAKVQWKVDNALQSGNSQESVTEQDSKDSTYSLSSTLTLSKADYEKHKVYACEVTHQGLSSPVTKSFNRGEC
notes: heterodimerized antibody, mutation in one H chain only; also called K326_20W He Ab

The target of this test is T1, FcγRIa extracellular domain with C-terminal His tag (human, UniProt P12314 16-292).
T1 construct: extracellular domain; soluble analyte in Biacore; also called FcgRI; CD64
T1 sequence (P12314 16-292): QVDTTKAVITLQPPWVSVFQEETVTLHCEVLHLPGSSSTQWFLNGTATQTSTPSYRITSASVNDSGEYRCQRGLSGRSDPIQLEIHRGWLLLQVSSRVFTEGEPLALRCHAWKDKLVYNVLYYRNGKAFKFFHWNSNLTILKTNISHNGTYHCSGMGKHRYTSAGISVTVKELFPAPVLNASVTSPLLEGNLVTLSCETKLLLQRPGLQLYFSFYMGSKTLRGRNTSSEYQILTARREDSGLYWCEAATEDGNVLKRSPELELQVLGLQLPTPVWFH
Description: SPR (Biacore), relative FcγRIa binding, GpH7-A5/GpH7-B3/GpL16-k0 (HeCon Ab) = 100.
Turning to B1, the He/Con_1a was 102 % of control. Then B2, with 102 % of control; and B3, with 104 % of control; and B4, with 100 % of control. Under B5 stands 105 % of control; under B6, 102 % of control; under B7, 105 % of control. Take B8: the He/Con_1a is 106 % of control. On to B9, for which the He/Con_1a was 104 % of control. As for B10, the He/Con_1a is 103 % of control. For the molecule B11, the He/Con_1a was 103 % of control.
